Source: PMC7949094, “Pantoea stewartii WceF is a glycan biofilm-modifying enzyme with a bacteriophage tailspike-like fold” (The Journal of Biological Chemistry, 2021)

Experiments:
SDS-PAGE without heating = molecular target: the molecule itself; experiment: SDS-PAGE without heating
[1] = molecular target: the molecule itself; experiment: SDS-PAGE without heating; purified HK620TSP and P22TSP in 2% (w/v) SDS, with or without heating for 5 min
[2] = molecular target: the molecule itself; experiment: SEC; size-exclusion chromatography of purified WceF (Fig. S2); conditions not shown

B1: bacteriophage HK620 tailspike protein (natural protein)
chain: DPDQFRAIIESPEGAGHVGYQYRRNTGSTMRMVSDVLDERVSLWDFHCDPSGNVIQPGPNVDSRQYLQAAIDYVSSNGGGTITIPAGYTWYLGSYGVGGIAGHSGIIQLRSNVNLNIEGRIHLSPFFDLKPFQVFVGFDNGDPASSGNLENCHIYGHGVVDFGGYEFGASSQLRNGVAFGRSYNCSVTGITFQNGDVTWAITLGWNGYGSNCYVRKCRFINLVNSSVNADHSTVYVNCPYSGVESCYFSMSSSFARNIACSVELHQHDTFYRGSTVNGYCRGAYVVMHAAEAAGAGSYAYNMQVENNIAVIYGQFVILGSDVTATVSGHLNDVIVSGNIVSIGERAAFSAPFGAFIDIGPDNSGASNVQDIQRVLVTGNSFYAPANITDSAAITLRANLNGCTFIANNFDCRYMVYNAPGTTSPVVQNLVWDKSNVIGGTHANQRAGQNLFDMQFASVVNSTIEVQLSCEDLSMFSCILFPASCQLSYSKITVDSAWTKSMSNTAVFEGNQQAGANVYVSYPATVNLTSYNTQGAVPFFSTDTNYAWVTSAYSLSINENLDFSPPATYTNKANGQLVGVGYNEIGGVRSVSVRLMLQRQV
notes: also called HK620TSP; source: purified
stoichiometry N (SDS-PAGE without heating): 3

B2: bacteriophage P22 tailspike protein (natural protein)
chain: YDPDQYSIEADKKFKYSVKLSDYPTLQDAASAAVDGLLIDRDYNFYGGETVDFGGKVLTIECKAKFIGDGNLIFTKLGKGSRIAGVFMESTTTPWVIKPWTDDNQWLTDAAAVVATLKQSKTDGYQPTVSDYVKFPGIETLLPPNAKGQNITSTLEIRECIGVEVHRASGLMAGFLFRGCHFCKMVDANNPSGGKDGIITFENLSGDWGKGNYVIGGRTSYGSVSSAQFLRNNGGFERDGGVIGFTSYRAGESGVKTWQGTVGSTTSRNYNLQFRDSVVIYPVWDGFDLGADTDMNPELDRPGDYPITQYPLHQLPLNHLIDNLLVRGALGVGFGMDGKGMYVSNITVEDCAGSGAYLLTHESVFTNIAIIDTNTKDFQANQIYISGACRVNGLRLIGIRSTDGQGLTIDAPNSTVSGITGMVDPSRINVANLAEEGLGNIRANSFGYDSAAIKLRIHKLSKTLDSGALYSHINGGAGSGSAYTQLTAISGSTPDAVSLKVNHKDCRGAEIPFVPDIASDDFIKDSSCFLPYWENNSTSLKALVKKPNGELVRLTLATL
notes: also called P22TSP; source: purified
stoichiometry N [1]: 3

B3: Pantoea stewartii WceF (residues 29-736, lacking the Tat signal peptide) (enzyme)
chain: KNTGLALKSVDATAIPKGDVPILTPENVYAMPPQFWQNFQGKLWIGRAGSDARQPGNQIPVFLRDANGNLAQITQPITLNKGNFDQFVKDNAALIANPSHAMALEDSNGQTVFNIPDVSQPGQAAFSQRLAQPAGYQLIGEIPSVDDLRKTRPLFEGAKIKLKSWHPGLEVGGGEFVGSFQPAQDDQGVIFSGDGFHWRRVVDDYNRLSLFDFGAIADGKTDSAPAIKAMYQWSQQSDQPICVQFPAGTFFVTGCDFGEEQRRFFRISGAMVNFGYFPATTIVSDGQSPFVFEVSARWVEISNLIFNGNTDTKPNRQGLLRNTCPGGQFFRGACLRFNNVGGTALSLLDTLDCKIDQWYASACTGDVIQAGWSGQKKGNWDHSTAIELSNFNAQHCKGGKVLNLPRCSQSLIHNGWIEHCDNPGDISNGQWIIDALSLEDCKNPLIAWHSRLNTRQTNLQSGSWIDNSEQGDRWLSAWEMGSTRVESYGVAIDGSLKYNYLTSRWLLENNTSQPVWYELANLYSPTVGDSWEIEVFGQSQFNNGTDSEPLMNLIDGRNTGGRAVIHVQRKKDHAEASWSAEGSSPVLDVRYVAKTDTDTQVFIRLAGWTPSAAIMIKSTAKDRFVTGRCARVDAKMAKATPDSGSHAAPQRFSLHNGKAGVGANEQGDLLLASRALSADNVDTRKPEGFVSVVINGKTVALPYFAIKA
notes: WceF of Pantoea stewartii subsp. stewartii DSM 30176, amplified from genomic DNA; recombinant construct residues 29-736 without the N-terminal 28 amino acids of the Tat signal peptide (the methods say aa 28-736); residues 34-736 resolved in the electron density; His6 tag followed by a TEV site, cleaved off for the purified protein; The forward primer encodes ...ENLYFQG-AKNTGL, so a glycine …
stoichiometry N [2]: 3
